Assay results published in PMC4683621.
Several values for one entry are separate records, joined by “and”; a condition that tells them apart may be missing. Equal values may be shown once.

Molecular target: wild-type PaCLPP (Podospora anserina (endogenous in P. anserina mitochondria))
Assay: native gel or EMSA; BN-PAGE of mitochondrial protein extracts from P. anserina strains, western blot with a PaCLPP- or HsCLPP-specific antibody

stoichiometry N: 7 and 14
Substance: wild-type PaCLPP (enzyme)
